Measurements: paper PMC10641069, “Intra- and inter-molecular regulation by intrinsically-disordered regions governs PUF protein RNA binding” (Nature Communications, 2023)
Entries after “also recorded” stand apart in the source; their conditions may differ.

T1: FBF-2 RBD + CT (Caenorhabditis elegans, UniProt Q09312)
T1 construct: A cDNA fragment encoding C. elegans FBF-2 RBD + CT (residues 164-632) was cloned into the pSMT3 vector; His6-SUMO (N, cleaved yes); made in house; host or cells: E. coli BL21-CodonPlus (DE3)-RIL
T1 sequence (Q09312 whole entry, looked up): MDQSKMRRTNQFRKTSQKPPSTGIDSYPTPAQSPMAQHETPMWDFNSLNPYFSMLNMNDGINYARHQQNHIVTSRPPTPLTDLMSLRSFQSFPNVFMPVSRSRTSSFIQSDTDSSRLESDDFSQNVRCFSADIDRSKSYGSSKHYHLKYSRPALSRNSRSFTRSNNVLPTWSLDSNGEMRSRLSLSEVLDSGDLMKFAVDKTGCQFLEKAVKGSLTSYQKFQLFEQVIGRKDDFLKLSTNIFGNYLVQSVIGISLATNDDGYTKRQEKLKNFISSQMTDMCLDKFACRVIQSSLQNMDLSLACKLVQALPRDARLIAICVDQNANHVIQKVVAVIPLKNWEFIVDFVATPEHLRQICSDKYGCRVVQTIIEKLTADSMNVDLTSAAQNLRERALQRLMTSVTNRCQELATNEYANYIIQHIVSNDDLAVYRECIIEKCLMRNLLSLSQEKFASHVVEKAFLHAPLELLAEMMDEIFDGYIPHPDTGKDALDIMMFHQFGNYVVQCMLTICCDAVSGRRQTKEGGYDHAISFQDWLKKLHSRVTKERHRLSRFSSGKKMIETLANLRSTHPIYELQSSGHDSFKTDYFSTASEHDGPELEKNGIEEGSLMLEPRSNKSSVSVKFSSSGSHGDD

T2: FBF-2 RBD+CT;LST-1 A peptide (Caenorhabditis elegans;Caenorhabditis …, UniProt Q09312;P91820 164-632;19-50, |)
T2 sequence 1: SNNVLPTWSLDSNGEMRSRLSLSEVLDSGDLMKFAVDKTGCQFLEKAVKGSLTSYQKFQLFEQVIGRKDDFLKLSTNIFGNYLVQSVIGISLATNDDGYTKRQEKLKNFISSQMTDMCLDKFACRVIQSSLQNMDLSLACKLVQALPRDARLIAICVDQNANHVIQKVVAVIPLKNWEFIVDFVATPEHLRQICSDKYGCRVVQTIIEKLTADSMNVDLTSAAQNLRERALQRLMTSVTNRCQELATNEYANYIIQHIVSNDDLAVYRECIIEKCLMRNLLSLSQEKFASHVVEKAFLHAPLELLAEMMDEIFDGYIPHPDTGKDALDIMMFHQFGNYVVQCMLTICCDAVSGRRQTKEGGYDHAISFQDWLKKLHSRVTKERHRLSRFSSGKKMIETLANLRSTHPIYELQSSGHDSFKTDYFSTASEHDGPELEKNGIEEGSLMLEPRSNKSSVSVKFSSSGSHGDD
T2 sequence 2: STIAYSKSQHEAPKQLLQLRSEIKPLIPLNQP


Assays:
[1] = target: T1, FBF-2 RBD + CT; assay: ITC, peptide into FBF-2 RBD + CT, no RNA; type: binding, C. elegans; details: 20 °C, pH 7.4
[2] = test system: gld-1 FBEa RNA; assay: Electrophoretic mobility shift assay (EMSA), RNA binding; set-up: species or system C. elegans; details: LST-1 B 50 μM
Description: A 3′-Cy5-labeled synthetic RNA was ordered from IDT (gld-1 FBEa, 5′-[…]-3′). The FBF-2 proteins were serially diluted 2-fold from the highest concentration of 10 µM in the buffer used for gel filtration (20 mM HEPES pH 7.4, 150 mM NaCl, and 0.5 mM TCEP). 10 µl of the serially diluted protein samples were mixed with 10 µl RNA (10 nM) in a 2× buffer of 10 mM HEPES pH 7.4, 0.01% (v/v) Tween 20, 0.1 mg/ml BSA, 0.1 mg/ml yeast tRNA, and 2 mM DTT. For experiments in the presence of LST-1, LST-1 proteins at constant concentration were preincubated with FBF-2 at 4 °C for 2 h. The LST-1 concentrations were chosen based on their Kd’s for interaction with FBF-2. The final FBF-2 concentrations ranged from 5000 nM to 0.6 nM, and the LST-1 A or B concentrations were constant at 150 μM or 50 μM, respectively. The protein-RNA mixtures were incubated at 4 °C overnight. The samples were resolved on 10% TBE polyacrylamide gels run at constant voltage (100 V) with 1× TBE buffer at room temperature for 35 min. The gels were scanned and visualized with a Typhoon FLA 9500 imager using the Cy5 channel (excitation wavelength 635 nm). Band intensities were quantified with ImageQuant 5.2 (Cytiva). The data were fit with GraphPad Prism (version 9.2.0) using nonlinear regression with a one-site specific binding model. Mean Kd’s and standard error of the mean (SEM) from three or more technical replicates are reported (Supplementary Table 4). Full scan images for the replicates shown in the main figures and gel images for all replicates are included in a source data file.

[3] = test system: gld-1 FBEa RNA; details: LST-1 peptide with FBF-2 RBD (no CT); cited from earlier work
Excerpt: LST-1 is expressed in GSCs in response to signaling from the stem cell niche. The LST-1 protein is largely unstructured (Fig. 1b), including an N-terminal region that is sufficient for self-renewal of GSCs[22]. This LST-1 IDR region harbors two PUF Interacting Motifs (PIMs), LST-1 A and LST-1 B, that interact with FBF-2, each with a KxxL sequence[17],[22]. Crystal structures of FBF-2 bound to LST-1 A or B identify a seven-residue core region, including the KxxL sequence, that binds to FBF-2 with similar peptide backbone structure[17],[18]. The two LST-1 PIMs are biologically redundant for ... || If the FBF-2 CT reduces RNA-binding affinity (Fig. 3b) and competes with LST-1 for binding (Fig. 2c, d), why then does FBF-2 depend on LST-1 to repress RNAs in nematodes? To address this question, we explored RNA-binding affinities of FBF-2 RBD + CT in the presence of either LST-1 A or LST-1 B (Fig. 6; Supplementary Table 3). In contrast to results with FBF-2 RBD alone[17],[18], both LST-1 A and LST-1 B increased the RNA-binding affinity of FBF-2 RBD + CT.

[4] = target: T2, FBF-2 RBD+CT;LST-1 A peptide; assay: EMSA; 150 uM LST-1 A; EMSA: FBF-2 in 20 mM HEPES pH 7.4, 150 mM NaCl, 0.5 mM TCEP mixed 1:1 with 5 nM final RNA in 10 mM HEPES pH 7.4, 0.01% Tween 20, 0.1 mg/ml BSA, 0.1 mg/ml yeast; details: protein: recombinant;recombinant; tags: none (His6-SUMO removed with Ulp1);none (His6-SUMO removed with Ulp1); copies: 1;1; label: 3'-Cy5

Molecule	-T∆S ([1]; replicate 1) [kcal/mol]	∆G ([1]; replicate 1) [kcal/mol]	∆H ([1]; replicate 1) [kcal/mol]	-T∆S ([1]; replicate 2) [kcal/mol]	∆G ([1]; replicate 2) [kcal/mol]	∆H ([1]; replicate 2) [kcal/mol]	effect on RNA-binding affinity ([2]; of FBF-2 RBD + CT L610A)	effect on RNA-binding affinity ([2]; of FBF-2 RBD + CT Y479A)	effect on RNA-binding affinity of FBF-2 RBD [3]	Kd [4] [nM]
LST-1 B: LST-1 B peptide, residues 67–98, expressed in E. coli (SSSPQQRSGLRSQKLHLTYIEKNKRVRAMIPQ; left off: His6-SUMO, N-terminal, cleaved)	2.08	-7.62	-9.7	2.27	-7.36	-9.61	little to no effect	no effect	decreased the RNA-binding affinity; also recorded: decreases RNA-binding affinity	
AUCAUGUGCCAUAC (ssRNA) [gld-1 FBEa RNA (EMSA)]										114 ± 10
